Molecular target: p47^phox (human (endogenous in HEK-293 and in human midbrain)) (UniProt P14598)
Experiment: proximity ligation

UniProt P14598, sequence (P14598 whole entry): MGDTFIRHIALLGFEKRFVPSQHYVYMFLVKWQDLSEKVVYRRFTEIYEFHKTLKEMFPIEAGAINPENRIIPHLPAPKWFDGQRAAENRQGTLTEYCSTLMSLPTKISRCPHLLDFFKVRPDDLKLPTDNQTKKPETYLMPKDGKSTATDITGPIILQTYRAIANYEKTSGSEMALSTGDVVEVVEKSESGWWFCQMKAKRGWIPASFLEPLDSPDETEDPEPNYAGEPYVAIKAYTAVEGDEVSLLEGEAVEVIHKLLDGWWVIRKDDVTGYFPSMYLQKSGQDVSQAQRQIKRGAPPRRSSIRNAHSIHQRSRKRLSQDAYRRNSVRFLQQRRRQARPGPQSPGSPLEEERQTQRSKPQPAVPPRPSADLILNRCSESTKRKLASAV

NOX2 docking sequence (Nox2ds)-tat (peptide)
IC50: 700 nM
